Tests used:
Format in all cases: in vivo, human
[1] = system: people with type 2 diabetes; experiment: Suppression of serum free fatty acid (FFA) concentration after dosing; details: people with T2D, single s.c. 0.3 U/kg
Experimental: Serum free fatty acid (FFA) concentrations were measured using a Wako NEFA assay (Wako Diagnostics, Mountain View, California), performed on a Roche Cobas C501 analyser (Roche Diagnostics GmbH, Mannheim, Germany).
The suppression of serum FFA concentration initially after dosing was determined by calculating the area over the baseline‐corrected serum FFA concentration‐time curve during the first hour (ΔAOCFFA,0‐1 h) and the first 2 hours (ΔAOCFFA,0‐2 h) as well as the time to reach 50% of the maximum FFA decline in the initial part of the FFA profile (t50% max FFA decline). Furthermore, the minimum FFA concentration (FFAmin) was derived.
Statistical analyses were performed using SAS version 9.4 (SAS Institute, Cary, North Carolina). All endpoints were compared between faster aspart and IAsp using a linear mixed model, with treatment and period as fixed effects and participant as a random effect. The P value for the two‐sided test of no treatment difference using a significance level of 5% was estimated from the model. For FFA endpoints, baseline FFA was included as a covariate. […] Least squares means for each treatment, treatment ratios and 95% confidence intervals (CIs) were calculated on the original scale. All other endpoints were analysed on a linear scale: least squares means for each treatment, treatment differences and 95% CIs were estimated. Treatment ratios and 95% CIs were determined according to Fieller's method.14

[2] = Serum IAsp pharmacokinetics after single subcutaneous dose (IAsp-specific ELISA); details: people with T2D, single s.c. 0.3 U/kg, 59 IAsp
Text: At the two dosing visits, participants received single dosing of 0.3 U/kg faster aspart (100 U/mL; Novo Nordisk, Bagsværd, Denmark) or IAsp (NovoRapid® 100 U/mL; Novo Nordisk) in a randomized sequence. Both trial products were provided in blinded PDS290 pen‐injector prefilled pens (Novo Nordisk) and administered subcutaneously in a lifted skin fold of the lower abdominal wall above the inguinal area. Use of current insulin was terminated in due time to allow washout before faster aspart and IAsp administration.
Blood sampling for pharmacokinetics was performed frequently from 2 minutes prior to dosing until 12 hours post‐dose (Table S2 in Appendix S1).
A validated IAsp‐specific enzyme‐linked immunosorbent assay with a lower limit of quantification (LLOQ) of 10 pmol/L was used to measure free serum IAsp concentrations following polyethylene glycol precipitation.
(§1) All pharmacokinetic and glucose infusion rate (GIR) endpoints to assess onset of exposure and glucose‐lowering effect, initial IAsp exposure and glucose‐lowering effect, offset of exposure and glucose‐lowering effect, and overall exposure and glucose‐lowering effect were defined and derived as previously described.5 In a blinded review of pharmacokinetic profiles, it was observed that selected profiles had pre‐dose values above the LLOQ and stayed above the LLOQ for the entire sampling period. It was therefore decided to baseline‐correct these profiles using a baseline value derived as the mean of all pre‐dose samples. After baseline correction, all pre‐dose values and negative values were set to zero. All pharmacokinetic endpoints for the baseline‐corrected profiles were derived in the same way as those for the non‐baseline‐corrected profiles.

[3] = system: people with type 2 diabetes; experiment: Safety assessments (adverse events, hypoglycaemic episodes, injection site reactions); details: single s.c. 0.3 U/kg
Text: Safety assessments included adverse events (AEs), hypoglycaemic episodes, injection site reactions, laboratory safety measures, physical examination, vital signs and ECG. AEs were defined as treatment‐emergent if they had onset within the period from time of trial product administration until 7 days later. Hypoglycaemic episodes were classified according to the American Diabetes Association12 and in addition defined as “confirmed” if documented by PG <3.1 mmol/L with or without symptoms consistent with hypoglycaemia. Hypoglycaemic episodes were defined as treatment‐emergent if they had onset between the time of trial product administration and the subsequent administration of any insulin; however, these should occur no longer than 16 hours after trial product administration.

[4] = system: people with type 2 diabetes; experiment: Euglycaemic glucose clamp, glucose infusion rate (glucose-lowering effect); details: people with T2D, single s.c. 0.3 U/kg, n = 56 faster aspart, 59 IAsp
Experimental: Participants arrived at the clinical site at 4:30 PM the day before dosing, were served a standardized meal and started fasting from 7:00 PM. In order to assess the pharmacodynamics of faster aspart and IAsp, a euglycaemic glucose clamp was conducted with an overnight run‐in period starting at 10:00 PM. Participants received a variable intravenous infusion of human insulin [40 IU Actrapid® 100 IU/mL (Novo Nordisk) in 99.6 mL saline] or 20% glucose to obtain the plasma glucose (PG) target concentration of 5.0 mmol/L. The trial product was administered between 8:00 AM and 10:00 AM the next morning after PG had stabilized for ≥1 hour with minimum insulin infusion and no glucose infusion. At the time of dosing, any infusion of intravenous insulin was terminated. After PG had declined by 0.3 mmol/L (defined as onset of action), a variable intravenous glucose infusion was initiated to keep PG at the target throughout the clamp. The clamp continued for up to 12 hours after dosing, but was terminated if PG was consistently ≥11.1 mmol/L, with no requirement for intravenous glucose infusion during the previous 30 minutes. The individual clamps were performed with similar high quality across both treatments (Figure S1 and Table S1 in Appendix S1).11
Measurement of PG concentrations during the glucose clamp was performed with a SuperGL 2 glucose analyser (Dr Müller Gerätebau GmbH, Freital, Germany) using an electrochemical method.
as §1

[5] = LS mean ± SE, n = 56 faster aspart, 58 IAsp
[6] = euglycaemic clamp, LS mean ± SE

## insulin aspart [IAsp]
[1]; [5]
  t50% max FFA decline (time to reach 50% of the maximum decline in FFA): 50.0 ± 2.3 min
  ΔAOCFFA,0-1 h (area over the baseline-corrected FFA curve, first hour): 0.09 ± 0.01 mmol·h/L
  ΔAOCFFA,0-2 h (area over the baseline-corrected FFA curve, first 2 hours): 0.38 ± 0.02 mmol·h/L
[1]; mean ± spread as printed
  Mean minimum FFA concentration (FFAmin): 0.08 ± 0.05 mmol/L
[2]; offset of exposure, LS mean, n = 56 faster aspart
  tLate 50% Cmax (time to 50% of maximum IAsp concentration in the late part of the PK profile): 237.8 min
[2]; free serum IAsp by ELISA, LS mean ± SE, n = 56 faster aspart
  Onset of appearance: 4.4 ± 0.3 min
[2]; sampling until 12 hours, LS mean, n = 56 faster aspart
  AUCIAsp,0-t (total IAsp exposure): 1.403 nM·h
[2]; LS mean ± SE, n = 55 faster aspart
  tmax (time to maximum IAsp concentration): 1.45 ± 0.0867 h
[2]; LS mean ± SE, n = 56 faster aspart
  tEarly 50% Cmax (time to 50% of maximum IAsp concentration in the initial part of the PK profile): 27.9 ± 1.0 min
[2]; LS mean, n = 56 faster aspart
  AUCIAsp,0-15min LS Mean: 0.0074 nM·h
  AUCIAsp,0-1h LS Mean: 0.189 nM·h
  AUCIAsp,0-1.5h LS Mean: 0.355 nM·h
  AUCIAsp,0-2h LS Mean: 0.516 nM·h
  AUCIAsp,2-t (partial area under the serum IAsp profile from 2 hours): 0.841 nM·h
  Cmax (maximum IAsp concentration): 0.384 nM
[2]; primary endpoint, LS mean, n = 56 faster aspart
  AUCIAsp,0-30min LS Mean: 0.042 nM·h
[3]; people with T2D
  Injection site reactions or treatment-emergent hypoglycaemic episodes: no injection site reactions or treatment‐emergent hypoglycaemic episodes were reported
  Tolerability: well tolerated
[3]; safety analysis set 61 participants with T2D, onset within 7 days of dosing
  Number of treatment-emergent AEs: 11
[4]; offset of glucose-lowering effect, LS mean
  tLate 50% GIRmax (time to 50% of maximum GIR in the late part of the GIR profile): 297.7 min
[4]; clamp up to 12 hours, LS mean
  AUCGIR,0-t (total glucose-lowering effect): 904 mg/kg
[4]; euglycaemic clamp target 5.0 mmol/L, LS mean ± SE
  Onset of action (PG decline by 0.3 mmol/L): 31.3 ± 1.4 min
[4]; [6]
  tEarly 50% GIRmax (time to 50% of maximum GIR in the initial part of the GIR profile): 51.1 ± 2.3 min
  tGIRmax (time to maximum glucose infusion rate): 155.6 ± 8.7 min
[4]; euglycaemic clamp, LS mean
  AUCGIR,0-30min LS Mean: 7.0 mg/kg
  AUCGIR,0-1h LS Mean: 67 mg/kg
  AUCGIR,0-1.5h LS Mean: 127 mg/kg
  AUCGIR,0-2h LS Mean: 210 mg/kg
[4]; LS mean
  AUCGIR,2-t (partial area under the GIR profile from 2 hours): 681 mg/kg
  GIRmax (maximum glucose infusion rate): 3.9 mg/kg/min

From PMC6771872, “Fast‐acting insulin aspart in people with type 2 diabetes: Earlier onset and greater initial exposure and glucose‐lowering effect compared with insulin aspart” (Diabetes, Obesity & Metabolism, 2019)
